Each block holds one binder with its values, some of them ahead of it.
What was measured:
PD-1 Fc fusion protein = molecular target: T1, PD-1 Fc fusion protein (UniProt Q15116 25-167, limits assumed); experiment: SPR (Biacore 3000), recombinant PD-1 Fc immobilised on CM5 chip, fusion protein injected
T1 construct: Antigen immobilised on the CM5 chip in all PD-1 SPR assays; also called PD-1 fused to human Fc region; PD-1-Fc antigen; not shown: human Fc region
Method: Surface plasma resonance (SPR) analysis was performed using Biacore3000, CM5 chip, an amine-coupling kit, 10×HBS-P running buffer and Glycine for. […] Dissociation was allowed to proceed followed by regeneration of the chip surface.

TGF-β1 [1] = molecular target: T2, TGF-β1 (UniProt P01137 279-390); experiment: cell-based or functional assay
T2 sequence (P01137 279-390 limits assumed): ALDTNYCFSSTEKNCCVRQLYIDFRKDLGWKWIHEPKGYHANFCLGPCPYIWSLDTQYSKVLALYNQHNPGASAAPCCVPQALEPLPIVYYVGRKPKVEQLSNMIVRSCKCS

TGF-β1 [2] = molecular target: T2, TGF-β1; experiment: cell-based or functional assay; remark: listed apart in the source

T1 sequence (Q15116 25-167 limits assumed): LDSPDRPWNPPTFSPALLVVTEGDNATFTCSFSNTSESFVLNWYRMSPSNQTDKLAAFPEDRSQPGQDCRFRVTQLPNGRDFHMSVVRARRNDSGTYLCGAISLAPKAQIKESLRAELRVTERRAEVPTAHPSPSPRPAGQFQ

Kd (PD-1 Fc fusion protein): 0.509 pM
B1: Anti-PD1 (VH7-VL6) IgG1-ADA2 (antibody)
heavy (part 1 of 2): QVQLVQSGVEVKKPGASVKVSCKASGYTFTNYYMYWVRQAPGQGLEWMGGINPSNGGTNFNEKFKNRVTLTTDSSTTTAYMELKSLQFDDTAVYYCARRDYRFDMGFDYWGQGTTVTVSS
heavy (part 2 of 2): GGGGSGGGGSSIDETRAHLLLKEKMMRLGGRLVLNTKEELANERLMTLKIAEMKEAMRTLIFPPSMHFFQAKHLIERSQVFNILRMMPKGAALHLHDIGIVTMDWLVRNVTYRPHCHICFTPRGIMQFRFAHPTPRPSEKCSKWILLEDYRKRVQNVTEFDDSLLRNFTLVTQHPEVIYTNQNVVWSKFETIFFTISGLIHYAPVFRDYVFRSMQEFYEDNVLYMEIRARLLPVYELSGEHHDEEWSVKTYQEVAQKFVETHPEFIGIKIIYSDHRSKDVAVIAESIRMAMGLRIKFPTVVAGFDLVGHEDTGHSLHDYKEALMIPAKDGVKLPYFFHAGETDWQGTSIDRNILDALMLNTTRIGHGFALSKHPAVRTYSWKKDIPIEVCPISNQVLKLVSDLRNHPVATLMATGHPMVISSDDPAMFGAKGLSYDFYEVFMGIGGMKADLRTLKQLAMNSIKYSTLLESEKNTFMEIWKKRWDKFIADVATK
light: EIVLTQSPATLSLSPGERATLSCRASKGVSTSGYSYLHWYQQKPGQAPRLLIYLASYLESGVPARFSGSGSGTDFTLTISSLEPEDFAVYYCQHSRDLPLTFGGGTKVEIK
notes: not shown: IgG1 heavy chain constant region; light chain constant region

Kd (PD-1 Fc fusion protein): 130 pM
B2: Anti-PD1 (VH7-VL6) scFv-ADA2 (scFv)
chain 1: B1 heavy (part 1 of 2)
chain 2: B1 light
chain 3: B1 heavy (part 2 of 2)

IC50, TGF-β1 neutralization activity (HEK-Blue TGF-β reporter cells) (TGF-β1 [1]): 1.2 pM
B3: Anti-PD1 (VL5-VH6).IgG4-Linker 2-TGFbRII (antibody)
heavy: QVQLVESGGGVVQPGRSLRLDCKASGITFSNSGMHWVRQAPGKGLEWVAVIWYDGSKRYYADSVKGRFTISRDNSKNTLFLQMNSLRAEDTAVYYCATNDDYWGQGTLVTVSSASTKGPSVFPLAPCSRSTSESTAALGCLVKDYFPEPVTVSWNSGALTSGVHTFPAVLQSSGLYSLSSVVTVPSSSLGTKTYTCNVDHKPSNTKVDKRVESKYGPPCPSCPAPEFLGGPSVFLFPPKPKDTLMISRTPEVTCVVVDVSQEDPEVQFNWYVDGVEVHNAKTKPREEQFNSTYRVVSVLTVLHQDWLNGKEYKCKVSNKGLPSSIEKTISKAKGQPREPQVYTLPPSQEEMTKNQVSLTCLVKGFYPSDIAVEWESNGQPENNYKTTPPVLDSDGSFFLYSRLTVDKSRWQEGNVFSCSVMHEALHNHYTQKSLSLSPGKGGGGSGGGSIPPHVQKSVNNDMIVTDNNGAVKFPQLCKFCDVRFSTCDNQKSCMSNCSITSICEKPQEVCVAVWRKNDENITLETVCHDPKLPYHDFILEDAASPKCIMKEKKKPGETFFMCSCSSDECNDNIIFSEEYNTSNPD
light: not shown

IC50, inhibition of TGF-β1 induced reporter gene activity (HEK-Blue TGF-β cells, SEAP) (TGF-β1 [2]): 5.6 pM
B4: Anti-PD1(VH7-VL6) IgG4-TGFβRII (antibody)
heavy: QVQLVQSGVEVKKPGASVKVSCKASGYTFTNYYMYWVRQAPGQGLEWMGGINPSNGGTNFNEKFKNRVTLTTDSSTTTAYMELKSLQFDDTAVYYCARRDYRFDMGFDYWGQGTTVTVSSASTKGPSVFPLAPCSRSTSESTAALGCLVKDYFPEPVTVSWNSGALTSGVHTFPAVLQSSGLYSLSSVVTVPSSSLGTKTYTCNVDHKPSNTKVDKRVESKYGPPCPSCPAPEFLGGPSVFLFPPKPKDTLMISRTPEVTCVVVDVSQEDPEVQFNWYVDGVEVHNAKTKPREEQFNSTYRVVSVLTVLHQDWLNGKEYKCKVSNKGLPSSIEKTISKAKGQPREPQVYTLPPSQEEMTKNQVSLTCLVKGFYPSDIAVEWESNGQPENNYKTTPPVLDSDGSFFLYSRLTVDKSRWQEGNVFSCSVMHEALHNHYTQKSLSLSPGKGGGGSGGGGSIPPHVQKSVNNDMIVTDNNGAVKFPQLCKFCDVRFSTCDNQKSCMSNCSITSICEKPQEVCVAVWRKNDENITLETVCHDPKLPYHDFILEDAASPKCIMKEKKKPGETFFMCSCSSDECNDNIIFSEEYNTSNPD
light: EIVLTQSPATLSLSPGERATLSCRASKGVSTSGYSYLHWYQQKPGQAPRLLIYLASYLESGVPARFSGSGSGTDFTLTISSLEPEDFAVYYCQHSRDLPLTFGGGTKVEIKRTVAAPSVFIFPPSDEQLKSGTASVVCLLNNFYPREAKVQWKVDNALQSGNSQESVTEQDSKDSTYSLSSTLTLSKADYEKHKVYACEVTHQGLSSPVTKSFNRGEC

Kd (PD-1 Fc fusion protein): 0.0663 pM
B5: Anti-PD1 (VH7-VL6) IgG4-ADA2 (antibody)
heavy (part 1 of 2): B1 heavy (part 1 of 2)
heavy (part 2 of 2): B1 heavy (part 2 of 2)
light: B4 light
notes: not shown: IgG4 heavy chain constant region

IC50, inhibition of TGF-β1 induced reporter gene activity (HEK-Blue TGF-β cells, SEAP) (TGF-β1 [2]): 9.3 pM
B6: Anti-PD1 (VL6-VH7).IgG4(S108P).TGFbRII (antibody)
heavy: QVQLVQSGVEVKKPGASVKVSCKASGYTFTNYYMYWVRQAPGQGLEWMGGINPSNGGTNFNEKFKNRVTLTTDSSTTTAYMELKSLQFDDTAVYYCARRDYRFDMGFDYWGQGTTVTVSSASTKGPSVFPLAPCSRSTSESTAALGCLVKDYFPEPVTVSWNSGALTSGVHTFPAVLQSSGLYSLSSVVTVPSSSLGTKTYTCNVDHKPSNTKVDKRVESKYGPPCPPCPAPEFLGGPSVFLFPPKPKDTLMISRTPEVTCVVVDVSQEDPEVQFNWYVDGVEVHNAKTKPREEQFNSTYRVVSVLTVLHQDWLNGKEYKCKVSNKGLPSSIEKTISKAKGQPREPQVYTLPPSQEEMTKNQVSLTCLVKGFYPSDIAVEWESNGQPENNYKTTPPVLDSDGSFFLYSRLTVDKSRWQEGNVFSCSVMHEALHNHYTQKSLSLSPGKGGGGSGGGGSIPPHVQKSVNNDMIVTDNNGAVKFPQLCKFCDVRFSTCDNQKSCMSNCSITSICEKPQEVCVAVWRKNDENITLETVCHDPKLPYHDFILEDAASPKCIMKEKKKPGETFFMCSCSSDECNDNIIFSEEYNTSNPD
light: B4 light

IC50, inhibition of TGF-β1 induced reporter gene activity (HEK-Blue TGF-β cells, SEAP) (TGF-β1 [2]): 9 pM
B7: Anti-PD1 (VL5-VH6).IgG4 (antibody, V domains shown)
VH: QVQLVESGGGVVQPGRSLRLDCKASGITFSNSGMHWVRQAPGKGLEWVAVIWYDGSKRYYADSVKGRFTISRDNSKNTLFLQMNSLRAEDTAVYYCATNDDYWGQGTLVTVSS
VL: EIVLTQSPATLSLSPGERATLSCRASQSVSSYLAWYQQKPGQAPRLLIYDASNRATGIPARFSGSGSGTDFTLTISSLEPEDFAVYYCQQSSNWPRTFGQGTKVEIK

Kd (PD-1 Fc fusion protein): 3460 pM
B8: Anti-PD1 (VH6-VL5) scFv-ADA2 (scFv)
chain 1: B7 VH
chain 2: B7 VL
chain 3: B1 heavy (part 2 of 2)

Kd (PD-1 Fc fusion protein): 0.0616 pM
B9: Anti-PD1 (VH6-VL5) IgG4-ADA2 (antibody)
heavy (part 1 of 2): B7 VH
heavy (part 2 of 2): B1 heavy (part 2 of 2)
light: not shown
notes: as for B5

IC50, TGF-β1 neutralization activity (HEK-Blue TGF-β reporter cells) (TGF-β1 [1]): 2.7 pM
B10: Anti-PD1 (VL5-VH6).IgG4-Linker12-TGFbRII (antibody)
heavy: QVQLVESGGGVVQPGRSLRLDCKASGITFSNSGMHWVRQAPGKGLEWVAVIWYDGSKRYYADSVKGRFTISRDNSKNTLFLQMNSLRAEDTAVYYCATNDDYWGQGTLVTVSSASTKGPSVFPLAPCSRSTSESTAALGCLVKDYFPEPVTVSWNSGALTSGVHTFPAVLQSSGLYSLSSVVTVPSSSLGTKTYTCNVDHKPSNTKVDKRVESKYGPPCPSCPAPEFLGGPSVFLFPPKPKDTLMISRTPEVTCVVVDVSQEDPEVQFNWYVDGVEVHNAKTKPREEQFNSTYRVVSVLTVLHQDWLNGKEYKCKVSNKGLPSSIEKTISKAKGQPREPQVYTLPPSQEEMTKNQVSLTCLVKGFYPSDIAVEWESNGQPENNYKTTPPVLDSDGSFFLYSRLTVDKSRWQEGNVFSCSVMHEALHNHYTQKSLSLSPGKDPVLEREDKVTTSKNPGSIPPHVQKSVNNDMIVTDNNGAVKFPQLCKFCDVRFSTCDNQKSCMSNCSITSICEKPQEVCVAVWRKNDENITLETVCHDPKLPYHDFILEDAASPKCIMKEKKKPGETFFMCSCSSDECNDNIIFSEEYNTSNPD
light: not shown

— patent publication US20240141045A1 (PRECIGEN, published 2024)
